Data as given in patent US20200062804A1 (ADRX, published 2020).
“And” between values parts separate entries of the source, which are not always exact repeats. Identical values can stand only once. Non-standard residues stand in square brackets, D forms with d. No end group written: not given here. NMeI = CC[C@H](C)[C@H](NC)C(=O)O; hArg = N=C(N)NCCCC[C@H](N)C(=O)O

T1: Nat1 (LTIITLE) (also: TFA salt)
T1 peptide: LTIITLE


Molecular target: T1, Nat1 (LTIITLE)
Experiment: cell-based or functional assay

Binder | IC50, Thiofiavin T aggregation assay
LRIRHVK | 246 nM
LHIEHR | 657 nM
LYIRTWH | 302 nM
IYIYHQR | 269 nM
LTIRTWH | 295 nM
ALIKYHR | 629 nM
TLIIYHR | 357 nM
IRIRRAA | 248 nM
LTIKLWH | 260 nM and 232 nM
LLIKYHR | 248 nM and 489 nM
WTKITLH | 427 nM
WTRIYLH | 240 nM
IRIRRYA | 44 nM
LTIRLTH | 329 nM
LTIRTLH | 537 nM
LLIKAHR | 258 nM
IRVYKYS | 480 nM
IRFRRYR | 496 nM
IRIARYR | 44 nM
LFIFYHR | 476 nM
IRIRAAR | 451 nM

Binder | IC50, Thiofiavin T aggregation assay
IQIYRYK | 444 nM
LYIFRHT | 363 nM
LR[NMeI]KYHR [LR(N-Me)IKYHR] | 334 nM
LYIRTYH | 257 nM and 463 nM
LLIKYHA | 234 nM
I[hArg]I[hArg]RWR [Ile-homoArg-Ile-homoArg-Arg-Trp-Arg] | 49 nM
LYIRHK | 316 nM
IRIRHYR | 14 nM
LLIAYHR | 466 nM
LLIKYAR | 301 nM
TYIRYLR | 412 nM
LFIYYQR | 440 nM
WTIRYYH | 473 nM and 214 nM
WTRILWH | 398 nM
LTIQLWH | 481 nM
WRIRRYR | 514 nM
RLYIRLS | 284 nM
LTIMLWH | 425 nM
IRIYRYK | 60 nM
WTIMLWH | 525 nM

The next lines start with the values.

IC50, Thiofiavin T aggregation assay | Binder
293 nM | [dF][dW][dR][dA][dH][dR][dR] [fwrahrr]
296 nM | [dR][dQ][dH][dY][dH][dW][dR] [rqhyhwr]
354 nM | [dY][dQ][dW][dQ][dY][dQ][dR] [yqwqyqr]
472 nM | [dW][dW][dR][dF][dH][dW][dR] [wwrfhwr]
338 nM | [dY][dW][dQ][dW][dR][dQ][dS] [ywqwrqs]
245 nM | [dK][dR][dW][dR][dH][dQ][dR] [krwrhqr]
49 nM | [dR][dW][dR][dY][dL][dR][dR] [rwrylrr]
338 nM | [dS][dH][dW][dR][dR][dH][dR] [shwrrhr]
252 nM | [dK][dQ][dW][dY][dH][dW][dR] [kqwyhwr]
420 nM | WTRIYYH
245 nM | [dF][dW][dR][dW][dH][dA][dR] [fwrwhar]
244 nM | [dR][dF][dY][dR][dH][dH][dR] [rfyrhhr]
51 nM | [dR][dF][dH][dY][dF][dR][dK] [rfhyfrk]
288 nM | WYIRLWH
236 nM | [dR][dQ][dM][dQ][dY][dR][dR] [rqmqyrr]
458 nM | [dF][dW][dR][dW][dH][dA][dA] [fwrwhaa]
287 nM | [dF][dA][dR][dW][dH][dR][dR] [farwhrr]
43 nM | [dH][dW][dR][dW][dL][dR][dR] [hwrwlrr]
287 nM | WYIRTYH
247 nM | [dW][dW][dR][dR][dH][dH][dR] [wwrrhhr]
245 nM | [dH][dW][dR][dW][dR][dW][dR] [hwrwrwr]
267 nM | [dA][dW][dR][dW][dH][dR][dR] [awrwhrr]
369 nM | WYIRLTH
262 nM | WYIRLWK
264 nM and 161 nM | [dF][dW][dR][dH][dK][dH][dR] [fwrhkhr]
239 nM | [dF][dW][dA][dW][dH][dR][dR] [fwawhrr]
301 nM | [dS][dW][dR][dW][dH][dH][dR] [swrwhhr]
494 nM | YYIRYYK
